From the supplement of paper PMC10567573

B1: HSP90AB1 (parent)
chain: QVANSAFVERVRKRGFEVVYMTEP
B2: C1orf55 (parent)
chain: FTSPDYQQQCHEMAERLEDSVLKG

Variants of: B1
Assay: protein stability index of a GFP-peptide fusion (GPS, HEK-293T) (PSI 1-6); higher = more stable
Conditions: c terminus: a fixed tail appended
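Note: lentivirally expressed fusions sorted by FACS into six bins by GFP to DsRed ratio, PSI derived from sequencing read proportions per bin multiplied by bin number.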

Compared with A3E, V19C is higher in protein stability index: 2.69 for the first, 2.79 for the second.

First: T22S
Second: M21Y
The protein stability index of the first is higher: 2.7 for the first, 2.04 for the second.

Compared with S5W, F16T is higher in protein stability index: 1.97 for the first, 3.1 for the second.

First: E23M
Second: F16D
The protein stability index of the first is lower: 2.56 for the first, 4.16 for the second.

First: A6G
Second: R14V
The protein stability index of the first is higher: 2.19 for the first, 1.65 for the second.

Going from G15C to F16E, the protein stability index rises from 1.79 to 4.47.

Going from V19F to V8S, the protein stability index rises from 1.53 to 2.54.

Going from E9Q to A6W, the protein stability index falls from 1.72 to 1.55.

Going from N4R to S5A, the protein stability index rises from 2.18 to 2.24.

Compared with R10N, S5V is lower in protein stability index: 2.99 for the first, 2.22 for the second.

Going from V19L to R14H, the protein stability index falls from 2.09 to 1.98.

First: A3W
Second: F16G
The protein stability index of the first is lower: 1.91 for the first, 3.28 for the second.

Compared with A3C, K13I is lower in protein stability index: 2.01 for the first, 1.51 for the second.

Compared with F7H, E9K is lower in protein stability index: 3.24 for the first, 2.26 for the second.

Compared with N4I, R14I is lower in protein stability index: 2.64 for the first, 2.56 for the second.

First: Q1T
Second: V18T
The protein stability index of the first is lower: 1.95 for the first, 2.67 for the second.

Going from T22A to Y20C, the protein stability index rises from 2.89 to 2.99.

First: F16I
Second: G15M
The protein stability index of the first is higher: 2.61 for the first, 2.07 for the second.

Going from R10C to R12D, the protein stability index rises from 2.05 to 3.5.

First: G15L
Second: Q1M
The protein stability index of the first is higher: 1.83 for the first, 1.81 for the second.

Going from M21G to V19A, the protein stability index rises from 2.65 to 2.83.

First: F16N
Second: T22G
The protein stability index of the first is higher: 3.3 for the first, 2 for the second.

First: E23F
Second: F7Y
The protein stability index of the first is lower: 1.62 for the first, 2.38 for the second.

Going from A6C to G15N, the protein stability index rises from 1.55 to 2.61.

Going from A6I to R12F, the protein stability index rises from 1.68 to 2.13.

Compared with G15K, S5F is lower in protein stability index: 2.12 for the first, 1.76 for the second.

Going from K13H to G15P, the protein stability index rises from 1.95 to 2.75.

First: Q1L
Second: V18D
The protein stability index of the first is lower: 2.27 for the first, 2.88 for the second.

Going from S5Y to K13Q, the protein stability index rises from 2.17 to 2.2.

Compared with E17Y, V2S is higher in protein stability index: 2.6 for the first, 2.69 for the second.

Compared with F7V, R12H is lower in protein stability index: 2.84 for the first, 2.53 for the second.

Compared with V11K, K13A is higher in protein stability index: 1.85 for the first, 2.42 for the second.

Going from S5D to M21P, the protein stability index rises from 2.59 to 2.8.

Going from T22Q to F7P, the protein stability index rises from 2.54 to 3.28.

First: Y20E
Second: R12E
The protein stability index of the first is higher: 3.37 for the first, 3.16 for the second.

First: R10G
Second: N4Q
The protein stability index of the first is lower: 2.17 for the first, 2.72 for the second.

First: V19G
Second: E23Y
The protein stability index of the first is higher: 2.75 for the first, 1.66 for the second.

Compared with E9G, G15S is lower in protein stability index: 2.74 for the first, 2.38 for the second.

Going from K13D to M21I, the protein stability index falls from 2.67 to 1.98.

Going from Y20R to P24W, the protein stability index falls from 3.23 to 2.09.

Going from V18Q to R12T, the protein stability index falls from 2.59 to 2.09.

Compared with P24D, V2R is lower in protein stability index: 3.18 for the first, 2.6 for the second.

Compared with K13N, E23C is higher in protein stability index: 2.24 for the first, 2.67 for the second.

Compared with R10Q, Q1I is lower in protein stability index: 2.17 for the first, 1.7 for the second.

Going from E23A to E9Y, the protein stability index falls from 2.88 to 2.32.

Compared with K13Y, V8W is lower in protein stability index: 1.75 for the first, 1.47 for the second.

First: M21L
Second: P24H
The protein stability index of the first is higher: 2.6 for the first, 2.1 for the second.

First: V2H
Second: E17I
The protein stability index of the first is lower: 2.49 for the first, 2.75 for the second.

Going from M21E to A6N, the protein stability index falls from 3.06 to 2.11.

First: K13W
Second: V2T
The protein stability index of the first is higher: 2.48 for the first, 2.41 for the second.

First: F16M
Second: R12G
The protein stability index of the first is higher: 2.73 for the first, 2.59 for the second.

First: V8Y
Second: T22W
The protein stability index of the first is higher: 2.7 for the first, 1.55 for the second.

First: F16A
Second: R10V
The protein stability index of the first is higher: 3.87 for the first, 1.76 for the second.

Going from Q1E to Y20H, the protein stability index rises from 1.91 to 3.07.

First: N4E
Second: V19N
The protein stability index of the first is lower: 2.81 for the first, 3.15 for the second.

First: F16K
Second: P24C
The protein stability index of the first is higher: 3.2 for the first, 2.2 for the second.

Going from N4F to R12Q, the protein stability index rises from 2.16 to 2.35.

Going from S5M to F16W, the protein stability index falls from 2.2 to 2.04.

First: E17N
Second: E9V
The protein stability index of the first is higher: 2.32 for the first, 1.97 for the second.

Compared with E23W, K13S is higher in protein stability index: 2.14 for the first, 2.83 for the second.

Compared with E9A, V2M is higher in protein stability index: 1.36 for the first, 2.18 for the second.

First: S5P
Second: T22E
The protein stability index of the first is lower: 2.44 for the first, 2.56 for the second.

First: F7S
Second: P24I
The protein stability index of the first is higher: 2.32 for the first, 2.03 for the second.

Compared with R10H, P24Y is lower in protein stability index: 2.33 for the first, 1.89 for the second.

Variants of: B2
Assay: as above
Conditions: c terminus: a fixed tail appended

First: F1A
Second: F1C
The protein stability index of the first is higher: 4.88 for the first, 4.43 for the second.

Going from F1D to F1E, the protein stability index falls from 4.84 to 4.78.

Compared with F1G, F1H is lower in protein stability index: 4.87 for the first, 4.59 for the second.

Going from F1I to F1K, the protein stability index falls from 4.68 to 4.64.

First: F1L
Second: F1M
The protein stability index of the first is higher: 5 for the first, 4.55 for the second.

Compared with F1N, F1P is higher in protein stability index: 4.84 for the first, 5.18 for the second.

Compared with F1Q, F1R is lower in protein stability index: 4.35 for the first, 3.98 for the second.

Going from F1S to F1T, the protein stability index rises from 4.31 to 4.88.

Compared with F1V, F1W is lower in protein stability index: 4.07 for the first, 3.75 for the second.

Compared with F1Y, T2A is higher in protein stability index: 1.94 for the first, 2.62 for the second.

Going from T2C to T2D, the protein stability index rises from 1.56 to 4.63.

Compared with T2E, T2F is lower in protein stability index: 4.24 for the first, 3.69 for the second.

Going from T2G to T2H, the protein stability index falls from 3.24 to 2.25.

Going from T2I to T2K, the protein stability index rises from 2.14 to 3.92.

First: T2L
Second: T2M
The protein stability index of the first is lower: 3.48 for the first, 3.79 for the second.

First: T2N
Second: T2P
The protein stability index of the first is higher: 4.04 for the first, 3.77 for the second.

Compared with T2Q, T2R is higher in protein stability index: 2.87 for the first, 4.16 for the second.

Going from T2S to T2V, the protein stability index falls from 3.39 to 2.45.

Going from T2W to T2Y, the protein stability index falls from 3.04 to 2.88.

S3A gave a protein stability index of 2.89.
